{
  "source": "paper PMC5514143",
  "about": "“A Drug Carrier for Sustained Zero-Order Release of Peptide Therapeutics” (Scientific Reports, 2017)",
  "key": {"[1]": {"test": "Circular dichroism of PEG-sCT released from the film", "assay_type": "physicochemical", "details": "CD 190-260 nm, room temperature, 0.1 cm path cell; release media", "protocol": "UV-vis absorption spectra were recorded on a UV-1800 spectrophotometer (SHIMADZU, Japan). Fourier transform infrared (FTIR) spectra were measured on Bio-Rad FTS-6000 spectrometer. CD measurement was performed on a Biologic MOS-450 (Claix, France) at room temperature in a 0.1 cm path cell. The CD signals were recorded from 190 to 260 nm using a bandwidth of 4.0 nm and a scanning rate of 50 nm/min. SEM images were recorded on an FEI NanoSEM 430 Scanning Electron Microscope. Atomic force microscopy (AFM) images were acquired using a Benyuan CSPM5000s scanning probe microscope in tapping mode."}, "[2]": {"details": "administered via injection; cited from earlier work", "from_the_text": "The key goal of a release system is to maintain the plasma drug concentration within the therapeutic window for a prolonged period of time. For zero-order release carriers, as the drug is released at constant rate, it will be possible to maintain the plasma drug concentration constant. This will avoid a plasma drug concentration which is too high to exert toxic effects, or too low to fail to exert therapeutic effects, and therefore lead to the best outcome. As expected, for rats with implanted PEG-sCT/TA films, the plasma concentration of PEG-sCT remains almost constant (Fig. 7A). When a 20 bi ..."}},
  "data": [
    {"substance": "PEGylated salmon calcitonin [PEG-sCT]", "values": [
      {"measurement": "secondary structure of PEG-sCT released from the film (CD spectra vs native drug)", "setting": "[1]", "result": "remains unchanged"},
      {"measurement": "half-life of PEG-sCT", "setting": "[2]", "result": "~ 83 min"}
    ]}
  ]
}
